Reference: US20110200615A1 (published 2011)

Key:
[1] = target: T1, Botulinum neurotoxin type B, subtype B4 (BoNT/B4) (Clostridium botulinum); experiment: flow cytometry; yeast-displayed scFv, soluble toxin
[2] = target: T2, Botulinum neurotoxin type B, subtype B3 (BoNT/B3) (Clostridium botulinum); experiment: as above
[3] = target: T1, Botulinum neurotoxin type B, subtype B4 …; experiment: KinExA flow fluorimetry; IgG in solution
[4] = target: T2, Botulinum neurotoxin type B, subtype B3 …; experiment: KinExA flow fluorimetry; IgG in solution

| Binder | Kd [1] [nM] | Kd [2] [nM] | Kd [3] [nM] | Kd [4] [nM] |
| --- | --- | --- | --- | --- |
| 4B7 scFv (yeast displayed) (scFv) QVQLQQSGPGLVKPSQTLSLTCSVSGGSINSDGSYWSWVRQHPGKGLEWIGYIYYSGTTYFNPSLKSRLTMSVDTSKNQFSLKMTSVTAADTAVYYCARMSGSRSYSQYYFDSWGQGTLVTVSSGGGGSGGGGSGGGGSDIQMTQSPSSLSASVGDRVTITCRASQSISSYLNWYQQKPGTAPKLLISDASTLQSGVPSRFSGSGSGTEFTLTISNLQPEDFATYYCQQFNSYVWTFGQGTKLEIK | 10 | 25.1 |  |  |
| 1B14 scFv (yeast displayed) (scFv) EVQLVESGGGLVQPGGSLRLSCAASGFTFSSYSMNWVRQAPGKGLEWVAVIWYDGSNKYYADSVKGRFTISRDNSKNTLYLQMNSLRAEDTAVYYCARSSIVGAPYGMDVWGQGTTVTVSSGGGGSGGGGSGGGGSEIVLTQSPSSLSAAVGDRVTITCRASQNIYSYLNWYQQKLGKAPNLLIYAVFSLQSGVPSRFSGSGYGTDFTLTISSLQPEDFATYYCQQSSSSPLTFGGGTKVEIK | 2.12 |  |  |  |
| 4B19.1 IgG (antibody, V domains shown) VH: QVQLVQSGAEVKKPGASVNVSCKASGYTFTGYYIYWVRQAPGQGLEWMGWINPNSGVTKYAQKFQGRVTMTIDTSTNTAYMELNRLRADDTAVYYCAREWTQLWSPYDYWGQGTTVTVSS VL: DIVLTQSPSTLSASVGDRVTISCRASRSIGWYLNWYQQRPGKAPKLLIYAASSLHNGVPSRFSGSGSGTEFTLTISSLQPDDFATYYCQQAFGFPRTFGQGTKVEIKR |  |  | 0.194 | 0.156 |
| 4B6 scFv (yeast displayed) (scFv) QVQLVQSGAEVKKPGESLVISCKASGDKDTFTSFWIAWVRQMPGKGLEWMGIIYAGDSDTRYSPSFQGHVNISVDRSTNTAYLQWSSLKASDTAMYYCARHDSRYKYFYFGMDVWGQGTTVTVSSGGGGSGGGGSGGGGSDVVMTQSPSSLSASVGDRITITCQAGQDISNFLNWYQQKPGKAPKLLIRDASNLETGVPSRFSGGGSGTHFTFTISSLHPEDIATYFCQQYDNLPYTFGQGTKLEIK | 1.61 | 1.08 |  |  |
